Data taken from patent EP2168984B1 (Abbott GmbH & Co. KG, dated 2012).

Experiments:
Assay in all cases: competition ELISA: soluble cytokine against J695 (100 ng/ml) binding to immobilized human IL-12
[1] = target: human IL-17 (human, UniProt Q16552 20-155, limits assumed)
[2] = target: T1, human lymphotoxin (human, UniProt P01374 35-205, limits assumed)
T1 sequence (looked up): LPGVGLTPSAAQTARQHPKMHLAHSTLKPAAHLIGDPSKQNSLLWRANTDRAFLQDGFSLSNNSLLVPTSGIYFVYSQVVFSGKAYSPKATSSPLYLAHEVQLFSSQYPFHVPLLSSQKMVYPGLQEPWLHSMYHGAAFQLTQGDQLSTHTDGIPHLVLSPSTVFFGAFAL

[3] = target: human IL-2 (human, UniProt P60568 21-153)
[4] = target: human IL-1β (human, UniProt P01584 117-269)
[5] = target: T2, human soluble IL-6 receptor (human, UniProt P08887 20-358)
T2 construct: Soluble form
T2 sequence (looked up): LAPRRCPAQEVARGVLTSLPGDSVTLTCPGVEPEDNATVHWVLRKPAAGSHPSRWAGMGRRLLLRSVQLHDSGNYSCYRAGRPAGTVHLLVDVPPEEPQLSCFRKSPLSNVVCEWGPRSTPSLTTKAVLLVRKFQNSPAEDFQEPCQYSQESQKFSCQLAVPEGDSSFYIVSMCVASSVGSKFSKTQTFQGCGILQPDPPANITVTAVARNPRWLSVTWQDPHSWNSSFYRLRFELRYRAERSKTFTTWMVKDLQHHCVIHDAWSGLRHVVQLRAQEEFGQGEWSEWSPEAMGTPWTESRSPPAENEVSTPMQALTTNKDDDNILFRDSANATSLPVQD

[6] = target: human IGF-II (human, UniProt P01344 25-91)
[7] = target: human TGF-β1 (human, UniProt P01137 279-390)
[8] = target: human LIF (human, UniProt P15018 23-202)
[9] = target: T3, human IL-1α (human, UniProt P01583 113-271)
T3 sequence (looked up): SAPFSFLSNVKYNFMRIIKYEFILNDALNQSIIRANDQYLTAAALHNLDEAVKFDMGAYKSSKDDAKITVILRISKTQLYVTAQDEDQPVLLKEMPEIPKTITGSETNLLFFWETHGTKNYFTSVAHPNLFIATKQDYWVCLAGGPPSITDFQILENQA

[10] = target: T4, human IFN-gamma (human, UniProt P01579 24-166, limits assumed)
T4 sequence (looked up): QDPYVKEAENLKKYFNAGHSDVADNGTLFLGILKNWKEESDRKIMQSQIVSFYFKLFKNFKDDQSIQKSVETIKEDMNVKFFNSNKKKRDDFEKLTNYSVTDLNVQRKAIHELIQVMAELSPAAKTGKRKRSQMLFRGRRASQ

[11] = target: human IL-10 (human, UniProt P22301 19-178)
[12] = target: T5, human M-CSF (human, UniProt P09603 33-190, limits assumed)
T5 sequence (looked up): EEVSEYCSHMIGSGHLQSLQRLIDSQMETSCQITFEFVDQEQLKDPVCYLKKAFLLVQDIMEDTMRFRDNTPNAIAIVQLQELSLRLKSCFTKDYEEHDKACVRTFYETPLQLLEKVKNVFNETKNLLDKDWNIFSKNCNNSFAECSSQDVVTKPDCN

[13] = target: human IL-8 (human, UniProt P10145 28-99, limits assumed)
[14] = target: T6, human IL-4 (human, UniProt P05112 25-153)
T6 sequence (looked up): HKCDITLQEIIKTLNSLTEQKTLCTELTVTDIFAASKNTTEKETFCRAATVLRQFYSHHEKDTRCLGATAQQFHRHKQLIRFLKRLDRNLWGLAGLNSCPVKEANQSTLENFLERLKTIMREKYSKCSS

[15] = target: human IL-6 (human, UniProt P05231 30-212)
[16] = target: human IGF-I (human, UniProt P05019 49-118)
[17] = target: T7, human IL-11 (human, UniProt P20809 22-199)
T7 sequence (looked up): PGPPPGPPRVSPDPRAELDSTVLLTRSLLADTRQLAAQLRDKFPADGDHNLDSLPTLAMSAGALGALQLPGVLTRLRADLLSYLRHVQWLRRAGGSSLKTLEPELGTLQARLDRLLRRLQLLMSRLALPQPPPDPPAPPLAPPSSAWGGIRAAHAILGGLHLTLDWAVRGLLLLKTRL

[18] = target: human TNFα (human, UniProt P01375 77-233)

Measured: binding result

B1: J695 (human anti-human IL-12 antibody, IgG1) (antibody, V domains shown)
VH: QVQLVESGGGVVQPGRSLRLSCAASGFTFSSYGMHWVRQAPGKGLEWVAFIRYDGSNKYYADSVKGRFTISRDNSKNTLYLQMNSLRAEDTAVYYCKTHGSHDNWGQGTMVTVSS
VL: QSVLTQPPSVSGAPGQRVTISCSGSRSNIGSNTVKWYQQLPGTAPKLLIYYNDQRPSGVPDRFSGSKSGTSASLAITGLQAEDEADYYCQSYDRYTHPALLFGTGTKVTVLG
notes: Tested as whole IgG1 with lambda light chain (detected with anti-human lambda); also called IgG1 J695; Y61-L94Y-L50Y IgG
no binding (tested: 2nM): [1] | [2] | [3] | [4] | [5] | [6] | [7] | [8] | [9] | [10] | [11] | [12] | [13] | [14] | [15] | [16] | [17] | [18]
